Publication PMC9555727 (Chemical Science, 2022)
“And” between values parts separate entries of the source, which are not always exact repeats. Identical values can stand only once. Like-named read-outs stand apart in the source and are kept apart here.

Columns and labels:
Upp (E. coli BL21 (DE3)) [1] = assay: mass photometry; protein stocks diluted in PBS pH 7.4 to nanomolar concentrations (~100 nM) immediately before measurement; detection threshold ~40 kDa
Upp (E. coli BL21 (DE3)) [2] = assay: not stated; summary of the solution experiments on the 17 proteins (native MS, MP, SEC, SAXS); which method gave the stated form is not given; details in Table S2, Fig. 5A and Fig. 6
[3] = biological target: IspD (E. coli BL21 (DE3)); assay: as above
[4] = biological target: NadK (E. coli BL21 (DE3)); assay: SEC; 30 μg protein on Superdex 200 Increase 10/300 GL in PBS pH 7.4; MM from a standard curve of elution volumes
[5] = biological target: NadK (E. coli BL21 (DE3)); assay: SAXS; EMBL P12 beamline, 20 °C, four concentrations between about 10 and 90 μM; MM from I(0) and equilibrium fit with OLIGOMER on PDB structures
[6] = biological target: NadK (E. coli BL21 (DE3)); assay: native MS; online buffer exchange MS; proteins diluted in 50 mM HEPES, 50 mM NaCl pH 7.4 (FabG: 25 mM tricine, 50 mM NaCl pH 8.5), overnight at 4 °C, exchanged online to 200 mM ammonium acetate pH 6.8; range of concentrations 40-0.15 μM before dilution; DeoC: apparent affinity, dimer to monomers, fit of eqn (1)
[7] = biological target: FabG (3-oxoacyl-[acyl-carrier-protein] reductase) from E. coli-DE3 (E. coli BL21 (DE3)); assay: native MS; as a1, FabG^DE3 in the presence of DTT; 2.5-40 μM
[8] = biological target: FabG (3-oxoacyl-[acyl-carrier-protein] reductase) from E. coli-DE3 (E. coli BL21 (DE3)); assay: SEC; 30 μg protein on Superdex 200 Increase 10/300 GL in PBS pH 7.4; MM from a standard curve of elution volumes
[9] = biological target: FabG (3-oxoacyl-[acyl-carrier-protein] reductase) from E. coli-DE3 (E. coli BL21 (DE3)); assay: non-reducing SDS-PAGE; 10 μg protein without β-mercaptoethanol, heated, 4-20% gel, Coomassie stain; shows inter-protein disulfide bridges
[10] = biological target: FabG (3-oxoacyl-[acyl-carrier-protein] reductase) from E. coli-DE3 (E. coli BL21 (DE3)); assay: SAXS; EMBL P12 beamline, 20 °C, four concentrations between about 10 and 90 μM; MM from I(0) and equilibrium fit with OLIGOMER on PDB structures
[11] = biological target: FabG (3-oxoacyl-[acyl-carrier-protein] reductase) from E. coli-DE3 (E. coli BL21 (DE3)); assay: as above; remark: listed apart in the source
[12] = biological target: FabG (3-oxoacyl-[acyl-carrier-protein] reductase) from E. coli-DE3 (E. coli BL21 (DE3)); assay: mass photometry; protein stocks diluted in PBS pH 7.4 to nanomolar concentrations (~100 nM) immediately before measurement; detection threshold ~40 kDa
[13] = biological target: FabG (3-oxoacyl-[acyl-carrier-protein] reductase) from E. coli-DE3 (E. coli BL21 (DE3)); assay: native MS; online buffer exchange MS; proteins diluted in 50 mM HEPES, 50 mM NaCl pH 7.4 (FabG: 25 mM tricine, 50 mM NaCl pH 8.5), overnight at 4 °C, exchanged online to 200 mM ammonium acetate pH 6.8; range of concentrations 40-0.15 μM before dilution; DeoC: apparent affinity, dimer to monomers, fit of eqn (1)
Can (E. coli BL21 (DE3)) = assay: not stated; summary of the solution experiments on the 17 proteins (native MS, MP, SEC, SAXS); which method gave the stated form is not given; details in Table S2, Fig. 5A and Fig. 6
[14] = biological target: Superoxide dismutase (SodA) (E. coli BL21 (DE3)); assay: SEC; 30 μg protein on Superdex 200 Increase 10/300 GL in PBS pH 7.4; MM from a standard curve of elution volumes
[15] = biological target: Superoxide dismutase (SodA) (E. coli BL21 (DE3)); assay: SAXS; EMBL P12 beamline, 20 °C, four concentrations between about 10 and 90 μM; MM from I(0) and equilibrium fit with OLIGOMER on PDB structures
[16] = biological target: Superoxide dismutase (SodA) (E. coli BL21 (DE3)); assay: mass photometry; protein stocks diluted in PBS pH 7.4 to nanomolar concentrations (~100 nM) immediately before measurement; detection threshold ~40 kDa
[17] = biological target: Superoxide dismutase (SodA) (E. coli BL21 (DE3)); assay: native MS; online buffer exchange MS; proteins diluted in 50 mM HEPES, 50 mM NaCl pH 7.4 (FabG: 25 mM tricine, 50 mM NaCl pH 8.5), overnight at 4 °C, exchanged online to 200 mM ammonium acetate pH 6.8; range of concentrations 40-0.15 μM before dilution; DeoC: apparent affinity, dimer to monomers, fit of eqn (1)
[18] = biological target: SpeB (E. coli BL21 (DE3)); assay: not stated; summary of the solution experiments on the 17 proteins (native MS, MP, SEC, SAXS); which method gave the stated form is not given; details in Table S2, Fig. 5A and Fig. 6
[19] = biological target: the molecule itself; assay: SEC; 30 μg protein on Superdex 200 Increase 10/300 GL in PBS pH 7.4; MM from a standard curve of elution volumes
[20] = biological target: the molecule itself; assay: native MS; online buffer exchange MS; proteins diluted in 50 mM HEPES, 50 mM NaCl pH 7.4 (FabG: 25 mM tricine, 50 mM NaCl pH 8.5), overnight at 4 °C, exchanged online to 200 mM ammonium acetate pH 6.8; range of concentrations 40-0.15 μM before dilution; DeoC: apparent affinity, dimer to monomers, fit of eqn (1)

Which results are given for Upp (enzyme)?
stoichiometry N (Upp (E. coli BL21 (DE3)) [1]): 2; stoichiometry N (Upp (E. coli BL21 (DE3)) [2]): 2 and 4 and 6

IspD (enzyme) was tested. Which stoichiometry N [3] did it give?
The stoichiometry N was 2 and 4.

What does the source list for NadK (enzyme)?
stoichiometry N [4]: 2.7; subunit average from SAXS I(0) at 8 μM [5]: 2.37; subunit average from SAXS I(0) at 61 μM [5]: 2.67; percent dimer at ∼1 μM [6]: 56%; percent dimer at ∼40 μM [6]: 23%; percent monomer at ∼1 μM [6]: 12%; percent monomer at ∼40 μM [6]: 2%; percent tetramer at ∼1 μM [6]: 32%; percent tetramer at ∼40 μM [6]: 75%; stoichiometry N [6]: 2 and 4

For “FabG (3-oxoacyl-[acyl-carrier-protein] reductase) from E. coli-DE3 (enzyme)”, which stoichiometry N [7] is on record?
Its stoichiometry N is 2 and 4.

And the stoichiometry N [8]?
Its stoichiometry N is 4 and 2.

What about the percent in an inter-protein disulfide bonded dimer [9] of the same molecule?
The percent in an inter-protein disulfide bonded dimer was 50%.

And the SAXS MM from I(0) divided by the monomer's mass [10]?
Its SAXS MM from I(0) divided by the monomer's mass is 3.7.

What about the SAXS MM from I(0) divided by the monomer's mass [11] of the same molecule?
The SAXS MM from I(0) divided by the monomer's mass was 3.5.

What about the stoichiometry N [11] of the same molecule?
The stoichiometry N was 6 and 2 and 4.

What about the stoichiometry N [12] of the same molecule?
The stoichiometry N was 2 and 4 and 6.

What about the stoichiometry N [13] of the same molecule?
The stoichiometry N was 6.

Can (enzyme) was tested. Which stoichiometry N (Can (E. coli BL21 (DE3))) did it give?
Its stoichiometry N is 4.

With Superoxide dismutase (SodA) (enzyme) as the molecule, how does the stoichiometry N [14] read?
Its stoichiometry N is 2.

What about the stoichiometry N [15] of the same molecule?
The stoichiometry N was 2.

And the stoichiometry N [16]?
The stoichiometry N was 2.

What about the stoichiometry N [17] of the same molecule?
The stoichiometry N was 2.

For SpeB (enzyme), which stoichiometry N [18] is on record?
Its stoichiometry N is 6.

B1: FabG (3-oxoacyl-[acyl-carrier-protein] reductase) from E. coli-K12 (enzyme, E. coli K12)
chain: MNFEGKIALVTGASRGIGRAIAETLAARGAKVIGTATSENGAQAISDYLGANGKGLMLNVTDPASIESVLEKIRAEFGEVDILVNNAGITRDNLLMRMKDEEWNDIIETNLSSVFRLSKAVMRAMMKKRHGRIITIGSVVGTMGNGGQANYAAAKAGLIGFSKSLAREVASRGITVNVVAPGFIETDMTRALSDDQRAGILAQVPAGRLGGAQEIANAVAFLASDEAAYITGETLHVNGGMYMV
notes: FabG, 3-oxoacyl-[acyl-carrier-protein] reductase of E. coli K12, Arg at position 167; probably the same vector, cleaved His-bdSumo tag and added N-terminal alanine as for the other proteins; also called FabG^K12; source: E. coli, purified
Which “stoichiometry N” value [19] does the source give for B1 here?
Its value is 2.

What about the “stoichiometry N” value [20] of the same molecule?
The value was 4.
